From US20060073572A1, “Cytokine structurally related to IL-17” (The Johns Hopkins University, priority 2001, published 2006)
“Also recorded” adds a separate entry of the source.

Columns and labels:
Assay type in all cases: cell-based, human
[1] = test system: p38; experiment: Western blotting of p38 activation in ML-1-stimulated cells; conditions: any time point, FIG. 6A (PBECs)
Procedure: (§1) FIGS. 6A-6D. Kinetic activation of ERK1/2 by ML-1 in PBECs (FIG. 6A) and HUVECs (FIG. 6B). The cells were incubated with or without ML-1 (100 ng/ml) for different time points as indicated. Western blotting analysis was performed by using antibodies against different MAP kinases as described in Example 8. FIGS. 6C and 6D. Effect of PD98059 on ML-1-induced phosphorylation of ERK1/2 in PBECs (FIG. 6C) and HUVECs (FIG. 6D). The cells were preincubated with PD98059 ([…]) or DMSO vehicle control for 1 hour, followed by stimulation of PBECs and HUVECs with medium or ML-1 for 20 minutes or 10 minutes, respectively. The results shown are representative of three separate experiments.
For analysis of activation of MAP kinases, PBECs were treated with IL-17 (100 ng/ml) for various time periods, with or without the MEK 1/2 inhibitor PD98059 ([…]; Calbiochem, La Jolla, Calif.) (15), the p38 inhibitor SB202190 (0.5-10 μM; ref. 16), or a vehicle control, DMSO (Me2SO) for 1 hour. […] Following the treatment, the cells were washed with ice-cold PBS. […]
(§2) Immunoreactive proteins were detected using antibodies against various kinases and phosphorylated kinases. […] Western blotting detection reagents (Amersham) and Hyper ECL luminescence detection film (Amersham) were used. […]

[2] = test system: ERK1/2; experiment: Western blotting of ERK1/2 phosphorylation in HUVECs; conditions: ML-1 100 ng/ml
Procedure: as §1
For analysis of activation of MAP kinases, PBECs were treated with IL-17 (100 ng/ml) for various time periods, with or without the MEK 1/2 inhibitor PD98059 ([…]; Calbiochem, La Jolla, Calif.) (15), the p38 inhibitor SB202190 (0.5-10 μM; ref. 16), or a vehicle control, DMSO (Me2SO) for 1 hour. […] Following the treatment, the cells were washed with ice-cold PBS. Cell pellets were immediately lysed in cold lysis buffer [20 mM Tris (pH 7.4), 4 mM EDTA, 2 mM EGTA, 1 mM PMSF, […] aprotinin, 200 mg/ml leupeptin, 50 mM NaF, 5 mM NaRP2O7, 1 mM Na3VO4, and 1% Nonidet P40; all purchased from Sigma]. Extracts (1×10^6 cell equivalents/lane) were suspended with an equal volume of 2× loading buffer [0.1 M Tris-HCl (pH 6.8)], 4% SDS, 0.005% bromophenol blue, and 20% glycerol) containing 2-ME (0.7 M) and subjected to 4-20% Tris-glycine gel electrophoresis (NOVEX, San Diego, Calif.). Gels were then transferred to PVDF membranes (BIO-RAD, Hercules, Calif.) with a Trans Blot apparatus (NOVEX). The membranes were immersed overnight in This-buffered saline/Tween 20 containing 5% nonfat dry skim milk (Carnation, Los Angeles, Calif.).
as §2

[3] = test system: IL-8; experiment: IL-8 expression in HUVECs (ELISA, RT-PCR); conditions: ML-1 10 and 100 ng/ml, 24 and 48 hours, ELISA
Procedure: FIG. 5. Analysis of IL-6 (FIG. 5A) and IL-8 (FIG. 5B) expression in primary bronchial epithelial cells (PBECs) and human umbilical vein endothelial cells (HUVECs) stimulated by ML-1. The IL-6 and IL-8 protein release in the supernatant was determined by ELISA as described in Example 8. The results were expressed as mean+SD (n=6). *p<0.05 was considered significant vs control.
FIG. 7A-7D. Effect of PD98059 on IL-6 (FIG. 7A) and IL-8 (FIG. 7B) protein production in PBECs and HUVECs. The cells were preincubated with varying concentrations of PD98059, SB202190, or DMSO vehicle control for 1 hour, followed by stimulation with ML-1 (100 ng/ml) for 24 hours. The results are expressed as the mean+SD (n=6). *P<0.05 when compared to cultures without the addition of PD98059. FIGS. 7C and 7D. Semi-quantitative analysis of gene expression for IL-6 (FIG. 7C) and IL-8 (FIG. 7D) by RT-PCR. The cells were preincubated as described above and treated with ML-1 for 4 hours. RT-PCR was performed as described in Example 8. The results shown are representative of three separate experiments.
Human umbilical vein endothelial cells (HUVECs) were obtained from Clonetics and cultured in endothelial cell growth media (EGM; Clonetics) containing 12 μg/ml bovine brain extract, 10 ng/ml EGF, 1 μg/ml hydrocortisone, 50 μg/ml gentimicin, 50 ng/ml amphotericin B, and 5% FBS amphotericin-B (Clonetics).
PBECs and HUVECs were treated with ML-1 100 ng/ml of ML-1 for various time points. Total RNA was extracted using RNeasy (Qiagen) from 1×10^6 cells 4 hours after stimulation or exchange of media. […]
The amplification reaction was performed for 23 cycles with denaturation at 94° C. for 45 seconds, annealing at 56° C. for 45 seconds, and extension at 72° C. for 45 seconds. PCR products were detected by ethidium bromide staining and normalized by the intensity of an amplified housekeeping gene, G3PDH (see above). […] IL-6 and IL-8 protein levels in the collected supernatants were determined with a commercially available ELISA kit (Biosource, Camarillo, Calif.) according to the manufacturer's instructions.

B1: ML-1: new member of the IL-17 cytokine family, SEQ ID NO:2; His-tagged recombinant protein expressed in COS-7 cells and affinity purified (protein, listed as Homo sapiens)
chain: MKLDIGIINENQRVSMSRNIESRSTSPWNYTVTWDPNRYPSEVVQAQCRNLGCINAQGKEDISMNSVPIQQETLVVRRKHQGCSVSFQLEKVLVTVGCTCVTPVIHHVQ
modifications: His tag
- activation of p38 kinase [1]: No activation
- time of maximum phosphorylation of ERK1/2 [2]: 10 min
- time of return of ERK1/2 phosphorylation to baseline levels [2]: ≤ 60 min
- IL-8 production [3]: time-dependent increase; also recorded: significantly induced
